In patent US20240132578A1:

Tests used:
Experiment in all cases: cell-based or functional assay
[1] = molecular target: HIV-1 JR-CSF Env P313A (HIV-1 (isolate JR-CSF, clade B)) (UniProt P20871)
[2] = molecular target: HIV-1 envelope glycoprotein (Env) of isolate 94 KE 105, subtype AC (HIV-1)
[3] = molecular target: HIV-1 JR-CSF Env L416A (HIV-1 (isolate JR-CSF)) (UniProt P20871)
[4] = molecular target: HIV-1 Env of isolate MGRM-AG-011 (pseudovirus) (HIV-1)
[5] = molecular target: HIV-1 envelope glycoprotein (Env) of isolate 92WR024, subtype A (HIV-1)
[6] = molecular target: HIV-1 envelope glycoprotein (Env) of isolate MG RM-A-008, subtype A (HIV-1)
[7] = molecular target: HIV-1 envelope glycoprotein (Env) of isolate VLGCA1, subtype A (HIV-1)
[8] = molecular target: HIV-1 JR-CSF Env N396A (HIV-1 (isolate JR-CSF)) (UniProt P20871)
[9] = molecular target: HIV-1 envelope glycoprotein (Env) of isolate VLGCB3, on pseudovirus (HIV-1)
[10] = molecular target: HIV-1 Env of isolate MGRM-G-001 (subtype G) (HIV-1)
[11] = molecular target: HIV-1 Env of isolate MG RM-A-005 (pseudovirus) (HIV-1)
[12] = molecular target: HIV-1 Env of isolate MGRM-C-017 (subtype C), on pseudovirus (HIV-1)
[13] = molecular target: HIV-1 Env of pseudovirus isolate 92BR020 (clade B) (HIV-1)
[14] = molecular target: HIV-1 Env of isolate MGRM-AE-003 (pseudovirus) (HIV-1)
[15] = molecular target: aMLV envelope (negative control pseudovirus) (aMLV)
[16] = molecular target: HIV-1 Env of isolate MGRM-C-026 (subtype C), on pseudovirus (HIV-1)
[17] = molecular target: HIV-1 Env of isolate MGRM-AE-001 (pseudovirus) (HIV-1)
[18] = molecular target: HIV-1 Env of isolate MGRM-A-010 (subtype A) (HIV-1)
[19] = molecular target: HIV-1 Env of isolate MGRM-AE-007 (subtype AE) (HIV-1)
[20] = molecular target: HIV-1 Env of pseudovirus isolate MGRM-C-023 (clade C) (HIV-1)
[21] = molecular target: HIV-1 Env of isolate MGRM-AE-001 (subtype AE) (HIV-1)
[22] = molecular target: HIV-1 Env of isolate MGRM-C-001 (HIV-1)
[23] = molecular target: HIV-1 envelope glycoprotein (Env) of isolate MG RM-AG-005 (HIV-1)
[24] = molecular target: HIV-1 envelope glycoprotein (Env) of isolate MG RM-AG-012 (HIV-1)
[25] = molecular target: HIV-1 Env of isolate 94UG103 (clade A pseudovirus) (HIV-1)
[26] = molecular target: HIV-1 envelope glycoprotein (Env) of isolate MGRM-C-017 (HIV-1)
[27] = molecular target: HIV-1 MGRM-AE-008 Env (pseudovirus) (HIV-1)
[28] = molecular target: HIV-1 Env of isolate MGRM-A-003 (clade A pseudovirus) (HIV-1)
[29] = molecular target: HIV-1 Env of isolate THR0.18 (Acute), clade B (HIV-1)
[30] = molecular target: HIV-1 envelope glycoprotein (Env) of isolate MGRM-C-022 (HIV-1)
[31] = molecular target: HIV-1 envelope glycoprotein (Env) of isolate MGRM-C-012 (HIV-1)
[32] = molecular target: HIV-1 MGRM-AE-005 Env (pseudovirus) (HIV-1)
[33] = molecular target: HIV-1 Env of pseudovirus MGRM-F1-018 (clade F) (HIV-1)
[34] = molecular target: HIV-1 envelope glycoprotein (Env) of isolate MGRM-C-025 (HIV-1)
[35] = molecular target: HIV-1 Env of isolate TRJ0.58 (Acute), clade B (HIV-1)
[36] = molecular target: HIV-1 Env of isolate MGRM-A-013 (clade A pseudovirus) (HIV-1)
[37] = molecular target: HIV-1 envelope glycoprotein (Env) of isolate MGRM-C-006 (HIV-1)
[38] = molecular target: HIV-1 MGRM-AG-002 Env (pseudovirus) (HIV-1)
[39] = molecular target: HIV-1 Env of isolate MGRM-D-020 (clade D pseudovirus) (HIV-1)

Chain of 4970_K22 (PGT-144) (antibody) (VH): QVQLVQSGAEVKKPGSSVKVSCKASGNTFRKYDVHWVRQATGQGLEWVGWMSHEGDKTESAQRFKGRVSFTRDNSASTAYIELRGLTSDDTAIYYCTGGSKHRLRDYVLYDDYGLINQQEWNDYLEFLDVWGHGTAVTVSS
Chain of 4970_K22 (PGT-144) (antibody) (VL): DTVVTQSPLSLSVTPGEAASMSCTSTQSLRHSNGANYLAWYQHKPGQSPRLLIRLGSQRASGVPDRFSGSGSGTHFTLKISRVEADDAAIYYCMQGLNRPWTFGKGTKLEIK
Chain of 4980_N08 (PGT-143) (antibody) (VH): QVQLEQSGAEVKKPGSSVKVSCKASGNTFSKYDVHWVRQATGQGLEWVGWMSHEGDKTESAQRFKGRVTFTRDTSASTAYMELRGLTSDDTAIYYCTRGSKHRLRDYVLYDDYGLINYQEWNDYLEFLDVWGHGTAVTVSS
Chain of 4980_N08 (PGT-143) (antibody) (VL): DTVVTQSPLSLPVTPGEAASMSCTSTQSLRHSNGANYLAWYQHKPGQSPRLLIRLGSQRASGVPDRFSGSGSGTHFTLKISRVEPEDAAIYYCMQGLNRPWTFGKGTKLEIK
Chain of 4993_K13 (PGT-141) (antibody) (VH): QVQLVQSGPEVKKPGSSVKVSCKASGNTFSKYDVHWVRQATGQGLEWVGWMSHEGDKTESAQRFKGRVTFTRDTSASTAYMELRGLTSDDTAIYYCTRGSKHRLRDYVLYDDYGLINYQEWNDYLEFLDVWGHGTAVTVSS
Chain of 4993_K13 (PGT-141) (antibody) (VL): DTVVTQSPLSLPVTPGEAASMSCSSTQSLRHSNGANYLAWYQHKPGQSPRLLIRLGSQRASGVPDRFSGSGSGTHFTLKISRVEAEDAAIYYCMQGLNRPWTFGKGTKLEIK
Chain of 5329_C19 (PGT-136) (antibody) (VH): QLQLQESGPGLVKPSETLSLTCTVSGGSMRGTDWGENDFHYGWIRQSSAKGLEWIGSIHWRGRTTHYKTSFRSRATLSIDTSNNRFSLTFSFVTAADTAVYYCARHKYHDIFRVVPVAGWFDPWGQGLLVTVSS
Chain of 5329_C19 (PGT-136) (antibody) (VL): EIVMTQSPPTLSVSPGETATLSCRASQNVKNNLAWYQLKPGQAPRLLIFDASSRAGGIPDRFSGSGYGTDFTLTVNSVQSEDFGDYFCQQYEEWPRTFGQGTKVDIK
Chain of PGT-142 (4995_E20) (antibody) (VH): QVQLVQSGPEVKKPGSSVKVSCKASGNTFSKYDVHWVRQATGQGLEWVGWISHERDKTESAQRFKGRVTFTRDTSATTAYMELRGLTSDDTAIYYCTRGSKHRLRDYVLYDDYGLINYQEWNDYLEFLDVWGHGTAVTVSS

## 5123_A06 (PGT-125) (antibody)
[1]
  Fold IC50 increase relative to wild-type: 0.3 fold
[2]
  IC50, pseudovirus neutralization: 0.004 µg/mL
[3]
  Fold IC50 increase relative to wild-type (pseudovirus neutralization): 0.8 fold
[4]
  IC50 (µg/mL), pseudovirus neutralization: > 50 µg/mL
[5]
  IC50, pseudovirus neutralization: 35.5 µg/mL
[6]
  IC50, pseudovirus neutralization: > 50 µg/mL
[7]
  IC50, pseudovirus neutralization: 0.078 µg/mL
[8]
  Fold IC50 increase relative to wild-type (pseudovirus neutralization): 1.6 fold
[9]
  IC50, pseudovirus neutralization: 0.015 µg/mL

## 4970_K22 (PGT-144) (antibody)
[10]
  IC50 (µg/mL), pseudovirus neutralization: > 50 µg/mL
[11]
  IC50 (µg/mL), single-round pseudovirus neutralization: 18.6 µg/mL
[12]
  IC50, single-round pseudovirus neutralization: 23 µg/mL
[13]
  IC50, pseudovirus neutralization: 44 µg/mL
[14]
  IC50 (µg/mL), single-round pseudovirus neutralization: > 50 µg/mL
[15]
  IC50 (µg/mL), pseudovirus neutralization: > 50 µg/mL
[16]
  IC50, single-round pseudovirus neutralization: > 50 µg/mL
[17]
  IC50 (µg/mL), single-round pseudovirus neutralization: > 50 µg/mL

## 5329_C19 (PGT-136) (antibody)
[18]
  IC50, pseudovirus neutralization: > 50 µg/mL
[19]
  IC50, pseudovirus neutralization: > 50 µg/mL
[20]
  IC50, pseudovirus neutralization: 3.2 µg/mL
[21]
  IC50, pseudovirus neutralization: > 50 µg/mL
[22]
  IC50 (µg/mL), pseudovirus neutralization: 7.52 µg/mL

## 5343_B08 (PGT-135) (antibody)
[18]
  IC50, pseudovirus neutralization: > 50 µg/mL
[3]
  Fold IC50 increase relative to wild-type (pseudovirus neutralization): 1.2 fold
[19]
  IC50, pseudovirus neutralization: > 50 µg/mL
[20]
  IC50, pseudovirus neutralization: 0.051 µg/mL
[21]
  IC50, pseudovirus neutralization: > 50 µg/mL
[8]
  Fold IC50 increase relative to wild-type (pseudovirus neutralization): 1 fold
[22]
  IC50 (µg/mL), pseudovirus neutralization: 10.1 µg/mL

## PGT-143 (4980_N08) (antibody)
[23]
  IC50: 1.11 µg/mL
[24]
  IC50: > 50 µg/mL

## 4858_P08 (PGT-123) (antibody)
[1]
  Fold IC50 increase relative to wild-type: 0.2 fold
[2]
  IC50, pseudovirus neutralization: 0.024 µg/mL
[3]
  Fold IC50 increase relative to wild-type (pseudovirus neutralization): 0.9 fold
[4]
  IC50 (µg/mL), pseudovirus neutralization: > 50 µg/mL
[5]
  IC50, pseudovirus neutralization: > 50 µg/mL
[6]
  IC50, pseudovirus neutralization: > 50 µg/mL
[7]
  IC50, pseudovirus neutralization: > 50 µg/mL
[8]
  Fold IC50 increase relative to wild-type (pseudovirus neutralization): 1.2 fold
[9]
  IC50, pseudovirus neutralization: 0.004 µg/mL

## PGV04 (antibody)
[10]
  IC50 (µg/mL), pseudovirus neutralization: > 50 µg/mL
[4]
  IC50 (µg/mL), pseudovirus neutralization: 0.071 µg/mL
[14]
  IC50 (µg/mL), pseudovirus neutralization: 6.4 µg/mL
[15]
  IC50 (µg/mL), pseudovirus neutralization: > 50 µg/mL
[17]
  IC50 (µg/mL), pseudovirus neutralization: 0.063 µg/mL

## 5145_B14 (PGT-127) (antibody)
[1]
  Fold IC50 increase relative to wild-type: 1.3 fold
[2]
  IC50, pseudovirus neutralization: 0.023 µg/mL
[3]
  Fold IC50 increase relative to wild-type (pseudovirus neutralization): 1 fold
[4]
  IC50 (µg/mL), pseudovirus neutralization: > 50 µg/mL
[5]
  IC50, pseudovirus neutralization: > 50 µg/mL
[6]
  IC50, pseudovirus neutralization: > 50 µg/mL
[7]
  IC50, pseudovirus neutralization: > 50 µg/mL
[8]
  Fold IC50 increase relative to wild-type (pseudovirus neutralization): 2.4 fold
[9]
  IC50, pseudovirus neutralization: 0.022 µg/mL

## 4980_N08 (PGT-143) (antibody)
[10]
  IC50 (µg/mL), pseudovirus neutralization: 0.423 µg/mL
[11]
  IC50 (µg/mL), single-round pseudovirus neutralization: 7.48 µg/mL
[12]
  IC50, single-round pseudovirus neutralization: 5.17 µg/mL
[13]
  IC50, pseudovirus neutralization: 25.9 µg/mL
[14]
  IC50 (µg/mL), single-round pseudovirus neutralization: > 50 µg/mL
[15]
  IC50 (µg/mL), pseudovirus neutralization: > 50 µg/mL
[16]
  IC50, single-round pseudovirus neutralization: > 50 µg/mL
[17]
  IC50 (µg/mL), single-round pseudovirus neutralization: > 50 µg/mL

## 1496_C09 (PG9) (TCN-109) (antibody)
[25]
  IC50 (µg/ml), pseudovirus neutralization: 0.24 µg/mL
[10]
  IC50 (µg/mL), pseudovirus neutralization: 0.166 µg/mL
[26]
  IC50 (µg/ml), pseudovirus neutralization: 1.52 µg/mL
[27]
  IC50 (µg/ml), pseudovirus neutralization: 10.6 µg/mL
[28]
  IC50 (µg/ml), pseudovirus neutralization: 0.65 µg/mL
[29]
  IC50 (µg/ml), pseudovirus neutralization: 12.4 µg/mL
[4]
  IC50 (µg/mL), pseudovirus neutralization: 0.007 µg/mL
[30]
  IC50 (µg/ml), pseudovirus neutralization: 0.19 µg/mL
[31]
  IC50 (µg/ml), pseudovirus neutralization: 0.24 µg/mL
[32]
  IC50 (µg/ml), pseudovirus neutralization: 0.16 µg/mL
[14]
  IC50 (µg/mL), pseudovirus neutralization: 0.044 µg/mL
[33]
  IC50: 0.03 µg/mL
[34]
  IC50 (µg/ml), pseudovirus neutralization: 0.17 µg/mL
[35]
  IC50 (µg/ml), pseudovirus neutralization: 0.43 µg/mL
[36]
  IC50 (µg/ml), pseudovirus neutralization: 0.16 µg/mL
[37]
  IC50 (µg/ml), pseudovirus neutralization: 0.23 µg/mL
[38]
  IC50 (µg/ml), pseudovirus neutralization: 0.04 µg/mL
[39]
  IC50, pseudovirus neutralization: 2.03 µg/mL
[17]
  IC50 (µg/mL), pseudovirus neutralization: 20.6 µg/mL

## PGT-142 (4995_E20) (antibody)
[23]
  IC50: 0.383 µg/mL
[24]
  IC50: > 50 µg/mL

## 4993_K13 (PGT-141) (antibody)
[10]
  IC50 (µg/mL), pseudovirus neutralization: 0.392 µg/mL
[11]
  IC50 (µg/mL), single-round pseudovirus neutralization: 11.1 µg/mL
[12]
  IC50, single-round pseudovirus neutralization: 4.02 µg/mL
[13]
  IC50, pseudovirus neutralization: 20.3 µg/mL
[14]
  IC50 (µg/mL), single-round pseudovirus neutralization: > 50 µg/mL
[15]
  IC50 (µg/mL), pseudovirus neutralization: > 50 µg/mL
[16]
  IC50, single-round pseudovirus neutralization: > 50 µg/mL
[17]
  IC50 (µg/mL), single-round pseudovirus neutralization: > 50 µg/mL
